According to PMC10257657, “A flavin-monooxygenase catalyzing oxepinone formation and the complete biosynthesis of vibralactone” (Nature Communications, 2023):

Substrate: CC(C)=CCc1cc(CO)ccc1O
Experiment: purified protein
Assay type: biochemical, Boreostereum vibrans
Details: NADPH 0.1 mM, 50 mM sodium phosphate pH 7.5, 28 °C, 30 min

B1: VibO (Boreostereum vibrans) (protein)
chain: MAAVENFEGYVEPELFERPGTSLPNKLGVMPQLTWPNVLNGTNCEKPAVPNYKPPSKVDVIIIGAGPVGLTTAACLLRQGITVRILDRSPHPLPVGRADGLQPRSMEVFDLLGLGEEVYHVGIRVEHTTVYKDGKQHIFAESHQAPGNEAHYTGLHACTQTEVEHLLIRDLIRHDILVERPCTATSYTFDEEADASVTHPITVNITNEATGAEEVVTARFLVGSDGAHSMIRKSLPIEFPGVKTDLHWGIVDAVINSDFPHRWTFGTVLNSEYGGCLIIPRERNMVRLYVQLRAEPGKAFDHSKWGPEEILVILNKVFAPYTLSYAEPVDWYTILTINERVATSFTYKDRIFLAGDSCHVHSAKGAFGMNTGVMDAHNLAWKLAMLCRGIAKPSLLASYDVERRENALRAVATSARYLRFVGNCTFQAIDGSGEVDKEADELVVPPGEDKDVFYFKKFVGQVGRFLIGLDVDYAENALNKLSPAVSRARAGYRASNPRVALSRSHSGRLYHSFGHLGQFTLLVFASNMGGALNAKLHALDSYLAGPSSFYHAYGGADTFKIVVVVRATPSQADQRVKTFPFLSKAGHTVYDDQLPLSHFGGDAHALYGVSHEEGAIVVVRPDSWIGTSSTISDARSLESYFDGFLFKSTEGSY
notes: full length, N-terminal His6 tag, expressed in E. coli BL21(DE3) (pET28a(+)); domains cover residues 1-653; dimer; copurified FAD
Km: 407 ± 83 µM | kcat: 0.111 ± 0.010 min^–1
